# Laboratory results published in paper PMC7156744, “CdbA is a DNA-binding protein and c-di-GMP receptor important for nucleoid organization and segregation in Myxococcus xanthus” (Nature Communications, 2020).
# Numbering of substitutions follows the chain as printed.
# Legend:
# [1] = target: T1, CdbA K8A/S10A-His6 K59A;S61A (Myxococcus xanthus DK1622) (UniProt Q1D489); experiment: EMSA; conditions: 10x buffer: 380 mM HEPES, 380 mM NaCl, 50 mM MgCl2, 50% glycerol, 10 mM DTT, 15 ng/ul poly(dI-dC), 50 ng probe, 30 C 30 min, 10% PAGE 1x TBE 4 C, pH not …
# T1 sequence: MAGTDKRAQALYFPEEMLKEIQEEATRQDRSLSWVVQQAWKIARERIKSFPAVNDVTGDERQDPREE
# [2] = target: T2, CdbA R27A/R30A-His6 R78A;R81A (Myxococcus xanthus DK1622) (UniProt Q1D489); experiment: EMSA; conditions: 10x buffer: 380 mM HEPES, 380 mM NaCl, 50 mM MgCl2, 50% glycerol, 10 mM DTT, 15 ng/ul poly(dI-dC), 50 ng probe, 30 C 30 min, 10% PAGE 1x TBE 4 C, pH not …
# T2 sequence: T1 sequence with A8K, A10S, R27A, R30A
sequence,measurement,setting,value
ACTTGGGTCTCCGGGGCGGATTCGGGGTGACGACCTGAACACACCTGGGCCGTTATCCGACAGACTCCCAAGTGGGTCAACGGTTTCCAAGGACTCATTCCGAGGTCGCACGGTCCGTCCCCGTGCTCGTCCAGTTGCACGTAAGCTGTGCAACCATGCGCGAAAAAGGAAACGCCCCGGACTCCACGAGGAAGTCCGGGGCGCTTCGGAAAGAGGGACCGCCTAGAGAAATCTCCAGGCGGGCCCGTGG (double strand) [cdbAB promoter],binding,[1],no binding
same,binding,[2],no binding
